# Data: the nanobody polyreactivity screen of Harvey et al. (2022)
# Experiment: yeast display, Sf9 membrane polyspecificity reagent, FACS + sequencing; frameworks hold sequencing errors
# Method in brief: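 Using colony PCR, genes from sorted yeast display clones were amplified, then sequenced on MiSeq at 2 × 250 and filtered by CDR length. The clones had been stained with 10% biotinylated, detergent-solubilized Sf9 membrane reagent for 1 hour at 4 °C and sorted by FACS into low and high (top ~1%) gates on anti-HA and streptavidin fluorescence. Polyreactivity labels come from the gate of origin.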
row,Sequence,polyreactivity (PSR sort gate)
1,QVQLVESGGGLVQAGGSLRLSCAASGRIFYFYAMGWYRQAPGKERELVAAITGSAGGTYYADSVKGRFTISRDNAKNTVYLQMNSLKPEDTAVYYCNAGSTRYWRSRYDYWGQGTQVTVSS,low polyreactivity
2,QVQLVESGGGLVQAGGSLRLSCAASGRIFYFYAMGWYRQAPGKERELVASISSGSSTNYADSVKGRFTISRDNAKNTVYLQMNSLKPEDTAVYYCAAQPWHGSRPRSYYWGQGTQVTVSS,high polyreactivity
3,QVQLVESGGGLVQAGGSLRLSCAASGRIFYFYAMGWYRQAPGKERELVASISYSGGNTYYADSVKGRFTISRDNAKNTVYLQMNSLKPEDNAVYYCNVLPNTGARGYYYWGQGTQVTVSS,low polyreactivity
4,QVQLVESGGGLVQAGGSLRLSCAASGRIFYGNTMGWYRQAPGKERELVAAITWRGGSTYYADSVKGRFTISRDNAKNTVYLQMNSLKPEVTAVYYCAAVSYRGRGYWGQGTQVTVSS,high polyreactivity
5,QVQLVESGGGLVQAGGSLRLSCAASGRIFYGYAIGWYRQAPGKEREFVARINVSGTSTFYADSVKGRFTISRDNAKNTVYLQMTSLKPEDTAVYDCAARGLPSNDYYYVHGYIMDYWGQGTQVTVSS,low polyreactivity
6,QVQLVESGGGLVQAGGSLRLSCAASGRIFYGYARGWYRQAPGKERELVATITWSGGSTYYADSVKGRFTISRDNAKNTVYLQMNSLNPEDTAVYYCAAYSPYIYQAYRYDYWGQGTQVTVSS,low polyreactivity
7,QVQLVESGGGLVQAGGSLRLSCAASGRIFYGYTMGWARQAPGKERQLVAAITWSGGSTYYADSVKGRFTISRDNAKYSVYLQMNSLKPKDTAVYYCAATLGNAADYDYGYWGQGTQVTVSS,high polyreactivity
8,QVQLVESGGGLVQAGGSLRLSCAASGRIFYGYTMGWYRQAPGKERELVASITIRGSRTYYADSVKGRFTISRDNAKNSVYLQMNSLKPEDTAVYYCAADFVPARTVHRYDYWGQGTQVTVSS,low polyreactivity
9,QVQLVESGGGLVQAGGSLRLSCAASGRIFYGYVMGWYRQAPGKETELVAAMTWSGSRTYYADSVKGRFTISRDNAKNTVYLQMNSLKPEDTAVYYCAARIPSDGYSYWGQVTQVTVSS,high polyreactivity
10,QVQLVESGGGLVQAGGSLRLSCAASGRIFYHNTMGWYRQAPGKEREFVAAISKRGGNTYYADSVKGRFTISRDNAKNTVYLQMNSLKPEDTAVYYCNRRNAWSRGEYWGQGTQVTVSS,high polyreactivity
11,QVQLVESGGGLVQAGGSLRLSCAASGRIFYKYVMGWDRQAPGKERELVADINRSGGTTYYADSVKGRFTISRDNAKNTVYLQMNSLKPEDTAVYYCTATLPDYWPYYYYQGGDDYWGQGTQVNVSS,low polyreactivity
12,QVQLVESGGGLVQAGGSLRLSCAASGRIFYLNAMGWYRQAPGKERELVAVITGNAGSTYYADSVKGRFTISRDNAKNTVYLQMNSLKPEDTAVYYCNALRLVPWSDALYDYWGQGTQVTVSS,low polyreactivity
13,QVQLVESGGGLVQAGGSLRLSCAASGRIFYLYAMGWYRQAPGKERELVAAISVSGARTYYADSVKGRFTISRDNAKNNVYLQMNSLKPEDTAVYYCATVGPYRSRRAGDYWGQGTQVTVSS,high polyreactivity
14,QVQLVESGGGLVQAGGSLRLSCAASGRIFYLYAMGWYRQAPGKERELVAAITWSGGSTTYADSVKGRFTISRDNAKNTVYLQMNSLKPEDTAVYYCNADGWIFPSFSPMDYWGQGTQVTVSS,low polyreactivity
15,QVQLVESGGGLVQAGGSLRLSCAASGRIFYLYAMGWYRQAPGKERELVATISGSGGSTYYADSVKGRFTISRDNAKNTVYLLMISLKPEDTAVYYCAAVSVSSWYDYWGQGTQVSVSS,low polyreactivity
16,QVQLVESGGGLVQAGGSLRLSCAASGRIFYLYAMGWYRQAPGTEREMVAAITWSGGSTTYADSVKGRFTISRDNAKNTVYLQMNSLKPEDTAVYYCYADGWIFPSFSPMDYWGQGTQVTVSS,low polyreactivity

row,Sequence,polyreactivity (PSR sort gate)
1,QVQLVESGGGLVQAGGSLRLSCAASGRIFYLYARGWYRQAPGKERELVATISSSGGRTYYADSVKGRFTISRDNAKNTVYLQMNSLKPEDTAVYYCNAYGEDDGPYPFPGYNYWGQGTQVTVSS,low polyreactivity
2,QVQLVESGGGLVQAGGSLRLSCAASGRIFYNYAMGWYRQAPGKETELVAAISGSGGSTYYADSVKGRFTISRDNAKNTVYLLMNSLKPEDTAVYYCSTSGQQYYSRNFDYWGQGTQVTVSS,low polyreactivity
3,QVQLVESGGGLVQAGGSLRLSCAASGRIFYNYVMGWYRQAPGKERELVAAISSSGGSTYYADSVKGRFTISRDNAKNSVYLQMNSLKPEDTAVYYCSAETYQLTWVLYYYWGQGTQVTVSS,high polyreactivity
4,QVQLVESGGGLVQAGGSLRLSCAASGRIFYPNAMGWYRQAPGKERELVAGISRSGGSTYYADSVKGRFTISRDNAKNTVYLQMNSLKPEVTAVFYCAARYYASDRHFRGDYWGQGTQVTVSS,low polyreactivity
5,QVQLVESGGGLVQAGGSLRLSCAASGRIFYPYAMGWYRQAPGKERDLVAAIRRSGVDTYYADSVKGRFTISRDNAKNTVYLQMNSLKPEDTAVYYCNKDGGGDSYWYDYWGQGTQVTVSS,low polyreactivity
6,QVQLVESGGGLVQAGGSLRLSCAASGRIFYPYAMGWYRQAPGKERELVAAIRWSSGNTRYADSVKGRFTISRDNAKNTVYLQMNSLKPEDTAVYYCAAPAVHILQTVSLTPRPLDYWGQGTQVTVSS,high polyreactivity
7,QVQLVESGGGLVQAGGSLRLSCAASGRIFYPYAMGWYRQAPGKERELVAAISRSGGSTYYADTVKGRFTISRDNAKNTVYLQMNSLKPEDTAVYYCAAEVVYFYSDAHIGYVDYEYWGQGTQVTVSS,low polyreactivity
8,QVQLVESGGGLVQAGGSLRLSCAASGRIFYPYAMGWYRQAPGKERELVALISWGGGSTYYADSVKGRFTISRDNAKNTVYLQMNSLKPEDTAVYYCAASYVGYWYRRGYGYWGQGTQVTVSS,high polyreactivity
9,QVQLVESGGGLVQAGGSLRLSCAASGRIFYPYAMGWYRQAPGTERELVATITRTGSTYYADSVKGRFTISRDNAKNTVYLQMNSLKPEDTAVYDCAVQRSYVGPRQYNYWGQGTQVTVSS,high polyreactivity
10,QVQLVESGGGLVQAGGSLRLSCAASGRIFYQYAMGWYRQAPGKERELVAAIRYRDDGTYYADSVKGRFTISRDNAKNTVYLQMNSLQPEDTAVYYCAAKQWGRYGYWGQGTQVTVSS,high polyreactivity
11,QVQLVESGGGLVQAGGSLRLSCAASGRIFYRNAMGWYRQAPGKERELVAAISYSGGRTYYADSVKGRFTISRDNAKNTVYLQMNSLKPEDTAVFYCAARYAWGYVDPGDYWGQGTQVTVSS,high polyreactivity
12,QVQLVESGGGLVQAGGSLRLSCAASGRIFYRNAMGWYRQAPGKERELVAAITSGGSTYYADSVKGRFTISRDNAKNTVYLQMNSLKPEDTAVYYCAAAYQRWFNRRDYWGQGTQVTVSS,high polyreactivity
13,QVQLVESGGGLVQAGGSLRLSCAASGRIFYRYAMGWYRQAPGKERELVAAINKSGGSTYYADSVKGRFTISRDNGKNTVSLQMKSLKPEDTAVYYCTAVYYWYKGDYWGQGTQVTVSS,high polyreactivity
14,QVQLVESGGGLVQAGGSLRLSCAASGRIFYRYAMGWYRQAPGKERELVAAIRSGGRTNYADSVKGRFTISRDNAKNTVYLQMNSLKPEDTAVYYCNAVWRYYRKRRAGDFGYWGQGTQVTVSS,low polyreactivity
15,QVQLVESGGGLVQAGGSLRLSCAASGRIFYRYAMGWYRQAPGKERELVAAISRNGGSTNYADSVKGRFTISRDNAKNTVYLQMNSLKPEDTAVYYCAARPPTTRPYDYDYWGQGTQVTVSS,high polyreactivity
